The values below come from PMC6048597 (Biochemistry, 2018).

Common to all, as to test: ITC
In general terms: In ITC the heat of successive injections is recorded.

The target of experiment [1] is T1, hBAZ2A PHD finger (residues 1673–1728), wild type (human, UniProt Q9UIF9 1673-1728).
T1 sequence (looked up): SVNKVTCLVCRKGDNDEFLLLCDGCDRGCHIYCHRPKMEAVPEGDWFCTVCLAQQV

In experiment [2] the target is T2, hAIRE PHD C310L (human, UniProt O43918 294-343, C310L).
T2 chain (looked up): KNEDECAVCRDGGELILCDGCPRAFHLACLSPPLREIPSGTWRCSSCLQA

Experiment [3] has as its target T3, hKDM5B PHD V346A (human, UniProt Q9UGL1 305-366, V346A).
T3 sequence (looked up): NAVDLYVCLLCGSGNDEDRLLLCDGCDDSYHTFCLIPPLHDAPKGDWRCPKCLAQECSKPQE

With ARTKQTARKSTW [Histone H3 residues 1–11 (H3-1-11W)], the binding result in experiment [1] and in experiment [3] was “binds” in each case. Moreover, in experiment [2], the “fold increase in affinity against the wild type AIRE PHD” value was around 15 fold.
